The target in series [1] is FLAG-tag-CDHR3 Y529 W76A (human) (UniProt Q6ZTQ4). Kind of series: co-IP; clarified lysate of transfected or stably transduced HeLa cells (2 mM CaCl2) incubated with sucrose purified C15 virus (10^7 PFUe) and α-CDHR3 antibody (cytoplasmic domain) overnight at 4°C, protein-G sepharose; Western with α-CDHR3 and α-C15.
For series [2], the target named is FLAG-tag-CDHR3 Y529 K43A (human) (UniProt Q6ZTQ4). The series is described as above.
Series [3] has as its target FLAG-tag-CDHR3 Y529 R166A (human) (UniProt Q6ZTQ4). The description is as above.
The target of series [4] is FLAG-tag-CDHR3 Y529 N186Q (human) (UniProt Q6ZTQ4). Described as above.
Series [5] has as its target FLAG-tag-CDHR3 Y529 N186A (human) (UniProt Q6ZTQ4). The series is described as above.
Series [6] addresses rEC1-3 K43A (20–345, C345A, K43A) (human) (UniProt Q6ZTQ4). Kind of series: co-IP; refolded bacterial CDHR3 fragment (100 pmol) incubated with C15 virus (10^7 PFUe, 1 h, 25°C) and α-His mAb in 20 mM Tris, 137 mM NaCl, 2 mM CaCl2, 1% Triton x-100, protein-G sepharose; Western with α-His and α-C15; complexes also treated with 500 mM NaCl (Fig 5d).
Series [7] addresses rEC1-2 (CDHR3 residues 20–237) (human) (UniProt Q6ZTQ4). Described as above.
The target of series [8] is rEC1 (CDHR3 residues 20–130) (human) (UniProt Q6ZTQ4). The description is as above.
The target in series [9] is rEC1-3 N186A (20–345, C345A, N186A) (human) (UniProt Q6ZTQ4). Described as above.
In series [10] the target is rEC1-3 (CDHR3 residues 20–345, C345A) (human) (UniProt Q6ZTQ4). The series is described as above.
Series [11] has as its target rEC1+3(Δ2) (CDHR3 residues 20–345, Δ129–231) (human) (UniProt Q6ZTQ4). The series is described as above.
The target in series [12] is pHL-FLAG-CDHR3-His EC1-3 (1–345) (human) (UniProt Q6ZTQ4). Kind of series: co-IP; HeLa-expressed CDHR3 fragments recovered from lysate with α-His mAb, denatured and refolded as the bacterial proteins, reacted with C15 virus; IP and detection with α-His mAb.
Series [13] deals with the molecule itself. Kind of series: SEC; HiPrep 16/60 Sephacryl S200, refolded protein 0.5–1.5 mg, 1 mL/min, 20 mM Tris (pH 8.0), 137 mM NaCl, 2 mM CaCl2. For orientation: Size exclusion chromatography separates by hydrodynamic size, large species first.

We go through 4 molecules from publication PMC6301718, “CDHR3 extracellular domains EC1-3 mediate rhinovirus C interaction with cells and as recombinant derivatives, are inhibitory to virus infection” (PLoS Pathogens, 2018).

Numbering of substitutions follows the chain as printed. Names and notes keep the numbering of the source.

Molecule rhinovirus C15 virion (complex) displayed a % more virus pull-down than WT (% more than WT) in series [1] of 50 to 80. Also, the binding % relative to WT CDHR3 (C15 signal normalized to CDHR3 signal) in series [2] amounted to 46%; in series [3] it was 16%; in [4], 19%; in series [5] it was 11%. For the same molecule, the figures for the binding % relative to WT rEC1-3 in series [6] and in series [9] were 22% and 85 % of WT, respectively. Moreover, the binding % relative to the positive control (100) of the panel was 87% in [7], 100% in [8], 61% in series [10] and 68% in series [11]. The binding % after refolding relative to the same protein not refolded in series [12] is 213%.

B1: rEC1-3 (CDHR3 residues 20–345, C345A) (domain or fragment)
chain: LHLILLPATGNVAENSPPGTSVHKFSVKLSASLSPVIPGFPQIVNSNPLTEAFRVNWLSGTYFEVVTTGMEQLDFETGPNIFDLQIYVKDEVGVTDLQVLTVQVTDVNEPPQFQGNLAEGLHLYIVERANPGFIYQVEAFDPEDTSRNIPLSYFLISPPKSFRMSANGTLFSTTELDFEAGHRSFHLIVEVRDSGGLKASTELQVNIVNLNDEVPRFTSPTRVYTVLEELSPGTIVANITAEDPDDEGFPSHLLYSITTVSKYFMINQLTGTIQVAQRIDRDAGELRQNPTISLEVLVKDRPYGGQENRIQITFIVEDVNDNPATA
notes: numbering from GenBank AIC58018; also called soluble CDHR3 rEC1-3; not shown: His6, C-terminal, kept
Take B1: the binding result in series [13] is “binds”.

B2: rEC1-2 (CDHR3 residues 20–237) (domain or fragment)
chain: LHLILLPATGNVAENSPPGTSVHKFSVKLSASLSPVIPGFPQIVNSNPLTEAFRVNWLSGTYFEVVTTGMEQLDFETGPNIFDLQIYVKDEVGVTDLQVLTVQVTDVNEPPQFQGNLAEGLHLYIVERANPGFIYQVEAFDPEDTSRNIPLSYFLISPPKSFRMSANGTLFSTTELDFEAGHRSFHLIVEVRDSGGLKASTELQVNIVNLNDEVPRFT
notes: CDHR3, human, residues 20-237 (EC1 and EC2); numbering from GenBank AIC58018; also called rE1-2; rEC1-2 WT; not shown: His6, C-terminal, kept
Take B2: in series [13], the binding result was “binds”.

B3: rEC1-2 W76A (CDHR3 residues 20–237, W76A) (domain or fragment, human, UniProt Q6ZTQ4 20-237, looked up)
chain: B2 chain with W57A
notes: CDHR3, human, residues 20-237; numbering from GenBank AIC58018; not shown: His6, C-terminal, kept
For B3, the binding result in [13] is listed as “binds”.
